# Where “and” joins values, the source holds several entries; their conditions need not be identical. Identical values can stand only once. Like-named read-outs stand apart in the source and are kept apart here.
# T1: human CD73 on Calu6 cells (human, UniProt P21589 27-549)
# T1 sequence (looked up): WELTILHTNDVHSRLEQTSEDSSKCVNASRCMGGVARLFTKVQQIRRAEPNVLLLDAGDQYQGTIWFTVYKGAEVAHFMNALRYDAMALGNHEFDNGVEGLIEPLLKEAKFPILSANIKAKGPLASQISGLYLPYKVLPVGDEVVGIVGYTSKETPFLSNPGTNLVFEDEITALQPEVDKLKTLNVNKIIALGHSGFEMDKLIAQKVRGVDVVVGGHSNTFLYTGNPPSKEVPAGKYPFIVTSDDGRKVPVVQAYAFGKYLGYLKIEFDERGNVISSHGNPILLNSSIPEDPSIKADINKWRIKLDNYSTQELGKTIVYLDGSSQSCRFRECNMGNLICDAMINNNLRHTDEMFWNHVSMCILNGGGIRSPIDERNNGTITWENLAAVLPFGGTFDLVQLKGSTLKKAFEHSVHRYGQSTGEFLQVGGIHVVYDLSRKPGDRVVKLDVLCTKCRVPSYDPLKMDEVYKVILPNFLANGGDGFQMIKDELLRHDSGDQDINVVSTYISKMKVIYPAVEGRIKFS
# T2: N-hCD73-his (N-terminal domain of human CD73, residues 26-336) (human, UniProt P21589 26-336)
# T2 construct: not shown: his tag
# T2 sequence (looked up): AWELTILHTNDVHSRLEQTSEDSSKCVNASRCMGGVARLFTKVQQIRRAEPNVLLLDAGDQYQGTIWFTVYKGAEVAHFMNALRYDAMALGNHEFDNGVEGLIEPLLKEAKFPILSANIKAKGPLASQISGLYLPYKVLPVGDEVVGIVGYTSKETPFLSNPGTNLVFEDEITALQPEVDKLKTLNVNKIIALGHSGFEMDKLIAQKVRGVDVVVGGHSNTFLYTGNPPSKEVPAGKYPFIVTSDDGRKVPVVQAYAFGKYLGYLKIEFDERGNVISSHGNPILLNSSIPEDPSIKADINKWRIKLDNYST
# How the values were obtained:
# [1] = molecular target: T1, human CD73 on Calu6 cells; test: cell-based or functional assay
# [2] = molecular target: T1, human CD73 on Calu6 cells; test: cell-based or functional assay; remark: listed apart in the source
# [3] = molecular target: T2, N-hCD73-his (N-terminal domain of human …); test: SPR (Biacore T100), mAb captured on protein A, N-hCD73-his analyte
# Procedure: The affinity of the antibodies for human CD73 was measured to determine whether the change of the constant region affects them. The affinities were determined by Surface Plasmon Resonance (SPR) as follows. […] For these experiments, protein A (Pierce) was immobilized to a density of 3000-4000 RU on flow cells 1-4 of a CM5 sensor chip (GE Healthcare) using standard ethyl(dimethylaminopropyl) carbodiimide (EDC)/N-hydroxysuccinimide (NHS) chemistry, with ethanolamine blocking, in a running buffer of 0.01 M HEPES pH 7.4, 0.15 M NaCl, 3 mM EDTA, 0.005% v/v tween 20. […] The running buffer for the kinetic experiments was 10 mM sodium phosphate, 130 mM sodium chloride, 0.05% tween 20, pH 7.1. The surfaces were regenerated after each cycle using two 30 s pulses of 10 mM glycine pH 1.5 at a flow rate of 30 μl/min. Sensogram data was double-referenced and then fitted to a 1:1 Langmuir model using Biacore T100 evaluation software v2.0.4, to determine the association rate constant (ka), the dissociation rate constant (kd), and the equilibrium dissociation constant (KD).
# [4] = molecular target: T1, human CD73 on Calu6 cells; test: cell-based or functional assay; remark: listed apart in the source
# [5] = molecular target: T1, human CD73 on Calu6 cells; test: cell-based or functional assay; remark: listed apart in the source
Binder,"T1/2 (hr) of CD73 internalization, Calu6 cells [1]","T1/2 (hr) of CD73 internalization, NCI-H292 cells [1]","Ymax (%) of CD73 internalization, Calu6 cells [1]","Ymax (%) of CD73 internalization, NCI-H292 cells [1]",Kd [3],koff [3],kon [3],"EC50 (nM) of CD73 internalization, Calu6 cells, 2 h [4]",Ymax of CD73 internalization (% of 100 nM 11F11) [4],further results
CD73.4-IgG2.5-plusTHT (antibody) heavy: QVQLVESGGGVVQPGRSLRLSCAASGFTFSNYGMHWVRQAPGKGLEWVAVILYDGSNKYYPDSVKGRFTISRDNSKNTLYLQMNSLRAEDTAVYYCARGGSSWYPDSFDIWGQGTMVTVSSASTKGPSVFPLAPSSRSTSESTAALGCLVKDYFPEPVTVSWNSGALTSGVHTFPAVLQSSGLYSLSSVVTVPSSNFGTQTYTCNVDHKPSNTKVDKTVERKCCVETHTCPPCPAPPVAGPSVFLFPPKPKDTLMISRTPEVTCVVVDVSHEDPEVQFNWYVDGVEVHNAKTKPREEQFNSTFRVVSVLTVVHQDWLNGKEYKCKVSNKGLPAPIEKTISKTKGQPREPQVYTLPPSREEMTKNQVSLTCLVKGFYPSDIAVEWESNGQPENNYKTTPPMLDSDGSFFLYSKLTVDKSRWQQGNVFSCSVMHEALHNHYTQKSLSLSPGK light: not shown,0.287 h,0.257 h,80.2%,89.6%,,,,,,
"CD73.10-IgG2-C219S (antibody, anti-CD73; also called CD73.10-IgG2CS) heavy: QVQLVESGGGVVQPGRSLRLSCAASGFTFSNYGMHWVRQAPGKGLEWVAVIWYDESNKYYPDSVKGRFTISRDNSKNTLYLQMNSLRAEDTAVYYCARGGSSWYPDSFDIWGQGTMVTVSSASTKGPSVFPLAPCSRSTSESTAALGCLVKDYFPEPVTVSWNSGALTSGVHTFPAVLQSSGLYSLSSVVTVPSSNFGTQTYTCNVDHKPSNTKVDKTVERKSCVECPPCPAPPVAGPSVFLFPPKPKDTLMISRTPEVTCVVVDVSHEDPEVQFNWYVDGVEVHNAKTKPREEQFNSTFRVVSVLTVVHQDWLNGKEYKCKVSNKGLPAPIEKTISKTKGQPREPQVYTLPPSREEMTKNQVSLTCLVKGFYPSDIAVEWESNGQPENNYKTTPPMLDSDGSFFLYSKLTVDKSRWQQGNVFSCSVMHEALHNHYTQKSLSLSPG light: not shown",,,,,6.2 nM and 8.3 nM,0.0014 s⁻¹ and 0.0018 s⁻¹,220000 M⁻¹ s⁻¹,0.67 nM,99%,"% internalization, Calu6 cells [2]: 91%; % internalization, H228 cells [2]: 93%; % internalization, H2030 cells [2]: 85%; % internalization, HCC15 cells [2]: 91%; T1/2 min of internalization, Calu6 cells [2]: 3 min; T1/2 min of internalization, H228 cells [2]: 9.7 min; T1/2 min of internalization, H2030 cells [2]: 3.3 min; T1/2 min of internalization, HCC15 cells [2]: 2.6 min"
"CD73.10-IgG2-C219S-IgG1.1 (antibody, anti-CD73; also called CD73.10-IgG2CS-IgG1.1f) heavy: QVQLVESGGGVVQPGRSLRLSCAASGFTFSNYGMHWVRQAPGKGLEWVAVIWYDESNKYYPDSVKGRFTISRDNSKNTLYLQMNSLRAEDTAVYYCARGGSSWYPDSFDIWGQGTMVTVSSASTKGPSVFPLAPCSRSTSESTAALGCLVKDYFPEPVTVSWNSGALTSGVHTFPAVLQSSGLYSLSSVVTVPSSNFGTQTYTCNVDHKPSNTKVDKTVERKSCVECPPCPAPPVAGPSVFLFPPKPKDTLMISRTPEVTCVVVDVSHEDPEVKFNWYVDGVEVHNAKTKPREEQYNSTYRVVSVLTVLHQDWLNGKEYKCKVSNKALPSSIEKTISKAKGQPREPQVYTLPPSREEMTKNQVSLTCLVKGFYPSDIAVEWESNGQPENNYKTTPPMLDSDGSFFLYSKLTVDKSRWQQGNVFSCSVMHEALHNHYTQKSLSLSPG light: not shown",,,,,5.7 nM and 6.8 nM,0.0014 s⁻¹ and 0.0016 s⁻¹,240000 M⁻¹ s⁻¹ and 230000 M⁻¹ s⁻¹,0.87 nM,99%,"% internalization, Calu6 cells [2]: 91%; % internalization, H228 cells [2]: 92%; % internalization, H2030 cells [2]: 87%; % internalization, HCC15 cells [2]: 91%; T1/2 min of internalization, Calu6 cells [2]: 3.1 min; T1/2 min of internalization, H228 cells [2]: 9.4 min; T1/2 min of internalization, H2030 cells [2]: 4.3 min; T1/2 min of internalization, HCC15 cells [2]: 3 min"
"11F11 (antibody, human IgG2, kappa, V domains shown, anti-CD73, IgG2; also called 11F11(IgG2)) VH: QVQLVESGGGVVQPGRSLRLSCATSGFTFSNYGMHWVRQAPGKGLEWVAVILYDGSNKYYPDSVKGRFTISRDNSKNTLYLQMNSLRAEDTAVYYCARGGSSWYPDSFDIWGQGTMVTVSS VL: DIQMTQSPSSLSASVGDRVTITCRASQGISSWLAWYQQKPEKAPKSLIYAASSLQSGVPSRFSGSGSGTDFTLTISSLQPEDFATYYCQQYNSYPLTFGGGTKVEIKR",,,,,1.6 nM and 0.56 nM,0.00042 s⁻¹ and 0.00016 s⁻¹,260000 M⁻¹ s⁻¹ and 290000 M⁻¹ s⁻¹,0.58 nM,98%,
"CD73.4-IgG2.3G1.1f-KH (antibody, also called CD73.4-IgG2-C219S-IgG1.1f; CD73.4-IgG2CS-IgG1.1f) heavy: QVQLVESGGGVVQPGRSLRLSCAASGFTFSNYGMHWVRQAPGKGLEWVAVILYDGSNKYYPDSVKGRFTISRDNSKNTLYLQMNSLRAEDTAVYYCARGGSSWYPDSFDIWGQGTMVTVSSASTKGPSVFPLAPCSRSTSESTAALGCLVKDYFPEPVTVSWNSGALTSGVHTFPAVLQSSGLYSLSSVVTVPSSNFGTQTYTCNVDHKPSNTKVDKTVERKSCVECPPCPAPPVAGPSVFLFPPKPKDTLMISRTPEVTCVVVDVSHEDPEVKFNWYVDGVEVHNAKTKPREEQYNSTYRVVSVLTVLHQDWLNGKEYKCKVSNKALPSSIEKTISKAKGQPREPQVYTLPPSREEMTKNQVSLTCLVKGFYPSDIAVEWESNGQPENNYKTTPPVLDSDGSFFLYSKLTVDKSRWQQGNVFSCSVMHEALHNHYTQKSLSLSPGK light: not shown",0.351 h,0.276 h,81%,90.3%,,,,,,"T1/2 (hr) of CD73 internalization, Calu6 cells [5]: 0.566 h; T1/2 (hr) of CD73 internalization, NCI-H292 cells [5]: 0.263 h; T1/2 (hr) of CD73 internalization, NCI-H1437 cells [5]: 0.316 h; T1/2 (hr) of CD73 internalization, NCI-H1437 cells (no wash) [5]: 0.342 h; T1/2 (hr) of CD73 internalization, SNU-C1 cells [5]: 0.495 h; T1/2 (hr) of CD73 internalization, SNU-C1 cells (no wash) [5]: 1.02 h; Ymax (%) of CD73 internalization, Calu6 cells [5]: 76.8%; Ymax (%) of CD73 internalization, NCI-H292 cells [5]: 77.6%"
CD73.4-IgG2.5G1.1f-KH (antibody) heavy: QVQLVESGGGVVQPGRSLRLSCAASGFTFSNYGMHWVRQAPGKGLEWVAVILYDGSNKYYPDSVKGRFTISRDNSKNTLYLQMNSLRAEDTAVYYCARGGSSWYPDSFDIWGQGTMVTVSSASTKGPSVFPLAPSSRSTSESTAALGCLVKDYFPEPVTVSWNSGALTSGVHTFPAVLQSSGLYSLSSVVTVPSSNFGTQTYTCNVDHKPSNTKVDKTVERKCCVECPPCPAPPVAGPSVFLFPPKPKDTLMISRTPEVTCVVVDVSHEDPEVKFNWYVDGVEVHNAKTKPREEQYNSTYRVVSVLTVLHQDWLNGKEYKCKVSNKALPSSIEKTISKAKGQPREPQVYTLPPSREEMTKNQVSLTCLVKGFYPSDIAVEWESNGQPENNYKTTPPVLDSDGSFFLYSKLTVDKSRWQQGNVFSCSVMHEALHNHYTQKSLSLSPGK light: not shown,0.353 h,0.299 h,79.6%,90.9%,,,,,,
CD73.4-IgG2.5 (antibody) heavy: QVQLVESGGGVVQPGRSLRLSCAASGFTFSNYGMHWVRQAPGKGLEWVAVILYDGSNKYYPDSVKGRFTISRDNSKNTLYLQMNSLRAEDTAVYYCARGGSSWYPDSFDIWGQGTMVTVSSASTKGPSVFPLAPSSRSTSESTAALGCLVKDYFPEPVTVSWNSGALTSGVHTFPAVLQSSGLYSLSSVVTVPSSNFGTQTYTCNVDHKPSNTKVDKTVERKCCVECPPCPAPPVAGPSVFLFPPKPKDTLMISRTPEVTCVVVDVSHEDPEVQFNWYVDGVEVHNAKTKPREEQFNSTFRVVSVLTVVHQDWLNGKEYKCKVSNKGLPAPIEKTISKTKGQPREPQVYTLPPSREEMTKNQVSLTCLVKGFYPSDIAVEWESNGQPENNYKTTPPMLDSDGSFFLYSKLTVDKSRWQQGNVFSCSVMHEALHNHYTQKSLSLSPGK light: not shown,0.348 h,0.306 h,79%,89.6%,,,,,,
